Source: the DeepSol protein solubility set

Assay: soluble on expression in E. coli; label from the status in PepcDB or PDB records

| Sequence | soluble on expression in E. coli |
| --- | --- |
| MSLKTKQEIVENWLPRYTQRQLIDFEPYILLTNFSHYLHVFAEHYGVPIVGEHTSMPNASAEGVTLINFGMGSANAATIMDLLWAIHPKAVIFLGKCGGLKLENALGDYLLPIAAIRGEGTSNDYLPEEVPSLPSFSVLRAISSAIQNKGKDYWTGTVYTTNRRVWEYDEKFKDYLRSTHASGVDMETATLMTVGFANKIPMGALLLISDRPMFPEGVKTEESDQLVTDNFAEEHLMLGIDALEIIRENKSSIKHIRFNWEGHHHHHH | soluble |
| MGSDKIHHHHHHMDVFSDRVLLTEESPIRKLVPFAEMAKKRGVRIHHLNIGQPDLKTPEVFFERIYENKPEVVYYSHSAGIWELREAFASYYKRRQRVDVKPENVLVTNGGSEAILFSFAVIANPGDEILVLEPFYANYNAFAKIAGVKLIPVTRRMEEGFAIPQNLESFINERTKGIVLSNPCNPTGVVYGKDEMRYLVEIAERHGLFLIVDEVYSEIVFRGEFASALSIESDKVVVIDSVSKKFSACGARVGCLITRNEELISHAMKLAQGRLAPPLLEQIGSVGLLNLDDSFFDFVRETYRERVETVLKKLEEHGLKRFTKPSGAFYITAELPVEDAEEFARWMLTDFNMDGETTMVAPLRGFYLTPGLGKKEIRIACVLEKDLLSRAIDVLMEGLKMFCSSRISC | soluble |
| HIWLFFIEEGKNHYRVEFRSNGINVREVALKYGGGGHIQASGAVLKSKRDIIRVVQD | not soluble |
| MKEFWVWVEPFDRKIVSVALEAGANAVVIPEKGRVEEVKKVGRITVIAPDGDLKLGEDVVYVLIKGKEDEERAAKYPPNVKVIVETTDWTVIPLENLIAQREELYAVVKNAQEAEVALQTLEKGVKGVVLKSRDINEIKKVGQIVSEHEEKLELVTIKITKILPLGLGDRVCVDTISLLHRGEGMLVGNSSGGMFLVHAETEENPYVAARPFRVNAGAVHMYIRVPNNRTKYLCELKAGDKVMVYDYKGRGRVTYVGRAKVERRPMLLIEGRYENKKLSCILQNAETIRLTKPDGTPISVSELKEGDEVLGYVEEAGRHFGMKVEETIIEKLEHHHHHH | soluble |
| MSDITISRPEVVNGHTDVICSTSIRHILAVRKSTLLQIDTLIRQLAEISVLTESIGGKTAPDWAMKQDFRCGCWLMEKPETAMKAITRNLDREIWRDLMQRSGMLSLMDTQARDTWYRSLEYDNFPEISEANILSTFEQLHQNKDEVFERGVINVFRGLNWNYKTNCPCKFGSKIIVNNLVRWDRWGFHLITGQQADRLADLERMLHLFSGKPIPDNRGNITLRLDDHIQSVQGKESYEDEMFSIRYFKKGSAHITFRKPELVDRLNDIIAKHYPDMLAV | soluble |
| GPGSMSGAGNLRSNRRREMDYMRLCNSTRKVYPSDTVAEFWVEFKGPEGTPYEDGTWMLHVQLPSDYPFKSPSIGFCNRILHPNVDERSGSVCLDVINQTWTPMYQLENIFDVFLPQLLRYPNPSDPLNVQAAHLLHADRVGFDALLREHVSTHATPQKALESIPEAYRPHDNTHEEEPDEANAKDTASDGPVNAGHSKGLTDSSVTPTEDHRVMHDDIAIDGDEDVEAEYEPEEIDL | soluble |
| MGSDKIHHHHHHMQKKRFFDMRKYRFFSSIECDAMLTFKQMEALYWIVQLGSFDAAATRLNTTQSAVSKRIQELERAFDLTVFDRAHRSARLTDKGAELFDHAKELLEQRDRVVERMSSKEALVRHVRIGVTELTALTWLPRLIAAIQAAYPRVHVEAEVDLTATLRERLAADTIDLIVVPQIHAAESFAATVVGEVDNAWMCAPGFMPKRKTAISLTDVARFPLILQGTLSGTGHLYTRFLQEHCVAMQRVLTSNSLIAQIGLTLSGLGVSYLPKACVAHLVACEALDIVRTRPALPPVRYVALHRAERAHSLTADIVRLAAQACDFSTSLLDPGAHD | not soluble |
| MLSKISESLANLSGAERKVAECALAEPKWFVHAAVAEIAERASVSQPTVIRFCRSLGYKGLPEFKLALSASIGHEGMPYVHEELNADDDMASVVEKVLGNAAASLLGERRFLKESELENAIATLMHARRVEFYGVGNSGIVAQDAQHKFFRFGMSTVAYVDTHTQLMAASVLSDQDVLVAISNTGSSIELLDAVSIAKENGASVIALTRNDSPLAQLADCVLSVATQENAELYTPMVSRLLQLAVIDILAIGLALRLGDAASLQLQKSKKSIHNKHIDYDKD | soluble |
| SLNPRDVVIVDFGRTPMGRSKGGMHRNTRAEDMSAHLISKVLERNSKVDPGEVEDVIWGCVNQTLEQGWNIARMASLMTQIPHTSAAQTVSRLCGSSMSALHTAAQAIMTGNGDVFVVGGVEHMGHVSMMHGVDPNPHMSLYAAKASGMMGLTAEMLGKMHGISREQQDAFAVRSHQLAHKATVEGKFKDEIIPMQGYDENGFLKIFDYDETIRPDTTLESLAALKPAFNPKGGTVTAGTSSQITDGASCMIVMSAQRAKDLGLEPLAVIRSMAVAGVDPAIMGYGPVPATQKALKRAGLNMADIDFIELNEAFAAQALPVLKDLKVLDKMNEKVNLHGGAIALGHPFGCSGARISGTLLNVMKQNGGTFGLSTMCIGLGQGIATVFERV | soluble |
| MAHHHHHHMKKSINILVCNNYLIHDFLSFFKNSDIDVGTKMDFIQKKASQVRIILLNGNEIMPGINVNYLEQIKEVFINAKIYVRYVVQEVGTVSIMELGQLEQDNIPYERKLAGYVLPNVHVKIDSKTNVMKIKSDNVFSQYYNNGKLTSQAFDQGGFFKTKYVASLAENALLKIEGIHNDMENIPDEYYLYFKQRRDKMEKHPPGYLKRVPLQGQIWGNFHANRRNWKRKF | not soluble |
| MIVMATCLLPDETDDACARNPWISHELVTSTVGPGDGLDLRAACSTGTLISGGCSADTFPDDELSLMRSGFAPDNRDEWLCSFKSLHESVTYEVATMAFCLNEDPLPAECGCCPPLAEQLTIRQTNEPLRNGPNRLEASCEDDEFLLIGNCMLDVPAVSEVESVTMFRYGYPPTDEHPDGDYSKWGCSWHNPTGYTPRALANAVCLPAQ | not soluble |
| MNDKIQKLIKKLAKECQKEDVALSLAAIDLEGEMAISQVGKGTIVAIAAHSQYTLTKEKLEQSDCDCPKHRLLKEMYGTETETTTKNTHTFVTDDPNDLMDILSKIFRGEFK | not soluble |
| MSLSTIYDIAKHAGVSKSTVSRVLNNQANISEESRKKVLAAIDQLNYQPSKLARALTSSGFDAIMVISNRSTTTTTGNPFFSEIIQSISTQAELENFDLILQTAKNSEDELKKCLSKIQEKMIKGIIMLSSPADEDFFHQLDPYNIPIVVTGKVEGHYKNIYSVDTDNFGDSYALTKHLIKQGHQKIACIHAPLDYHVSIDRLAGFRSCLFDHQLDLRNDWIIDSGYSIEDSYKAALRLMEGPDKPTAVFATDDLKVLSIYKMAADKNLQIPTDFSVIGYNDKVASSFLSPPLTSIDIPINKLGKKATNLLFRLIHQDKNVPKTTIIQTEMIERESIQKINEGHHHHHH | not soluble |
| MPNSSIQIWLQRQIALRTFPPNREDWYVKNGFGNSEMSLEERFASFVEAIRQEDSPYHEQLSGIDFQRFEIEVTLANQKTCMTEVIGFQNNSNQSSSTPNEKFKAVGKGKHVIYFTGIGTQYQDCLIDIAKAVQITGAHYYAFEYPGMRKLGGEVLEVNDMVNTGIALANTLLEKGISIDDILFQGDSFGAAVAKKVSDQFKLQSNVTVRCILNNTFSTFQAAVEGNLGAFSTLRYTVRPLLRYTGWDIRPGEGYGQDTPYQIHVNHTGDLTLGAGHATLAESIESNSQLEHFVDPCPEEYRIKRDIYKQWHWASLSEQGITFLETKYGRNSDGQLDTHLADLYLLKYDTGLGVYESFICKYLEDSNDYIASHPQKLSLDELPRPLESETVSLRQLIVSVLPSRPSIAGFFSRSTPVIEEVETEKQEQKSIELK | soluble |
| MAHHHHHHMNTLGSSGSAGAEAPLVGGPDALTLQTINEQQLIILRQKELVSTLKECVEELGAQLRRAGVKPLEAAQKEDGCKGTLSYVSEMQLRRRVRTLEDENKKLSDLVDELRAEVSAISAQLCAQQLHTQSEKDVWKAKVSSAEAKSVATAHLLEATGKRNQQLVHHLETLRREGEVSAYECTQWRSLATTAVSHLDHANQRYARAQINSIEEDVHRYAVNRLRLVRVAASASLSLDSGTPEETRKIWSRSAQLPKLHPAPQVFQQQQQEPVCSPLHVSYKRPLSQLLPCQPPQPTTSYSLPPPTAEHVNAETHLSPSHCAALAQT | not soluble |
| MRDFNNAQITRLKVRQNAVFEKLDLEFKDGLSAISGASGVGKSVLIASLLGAFGLKESNASNIEVELIAPFLDTEEYGIFREDEHEPLVISVIKKEKTRYFLNQTSLSKNTLKALLKGLIKRLSNDRFSQNELNDILMLSLLDGYIQNENKAFSPLLGALEEKFTRLEKLEKERRLLEDKKRFQKDLEERLNFEKMKLERLDLKEDEYERLLEQKKLLSSKEKLNDKIALAL | not soluble |
| MGSDKIHHHHHHMSVVIEFDKVSRQFVRRQNASTIQERFMGLIRGLPPAEAFWAVRDVSFAVEEGQSIGLVGHNGAGKSTILKLMTRVLEPTSGRVTTQGRIAALLELGSGFHPELSGRENVFLYGSLMGFGRKEMQRKLPEIIEFSEIGPFLDTEVKHYSSGMYTRLAFAVATAVDPDILITDEVLAVGDETFQRKCIDRIYGFRRAGKTIVFVSHALDVVRSLCDVAVWLDHGEMKAYGEAGKVVDAYLADVNERERAEFEERLHSEDDDQIRESRMRRGSREVEITRVQLLDAQGRERITFRTHEPLTIRIHYLAHQRIERPVFGVGINHESGPWLTGPNTGFDKYHIPFIEGAGIIDYHIPRLPFLGGRYLVSASATDSTQLYEFDVHDRMYPLVIHSDGLSQRYGMVFCEGNWSWHG | not soluble |
| MGSDKIHHHHHHMHIAPHDNQNKPIVDAEHDLVPLNYFNIVKLRRGEVFEYAVPGYETCVVPATGTVDIDVEGAIYPDLGNRTEDVWDGEPEGVYVPVGAKVRITCKTDVTETFIAGAKYDKVLEPFDVRADALDVVQYGSDDTKTHRKIKHILGANHHDKVGRLLVSELYTVGEGGWSGFPSHKHDTDRLPDETRHDETYNFRFKPNYGSGVQMLQREDNQPGDAYHIMDGSTVLIDKGYHPCAVLPGYQMYYFTILGGLSQRSLKQYFQPTHAEQLHTIPGIMDMVAKFK | not soluble |
| MKRYTVKDIEALLPKLGADDPRWEMLRQDERKSVQALLARFERQKARRHAIEQRWEELMRYERELYAAGVRRIAGIDEAGRGPLAGPVVAAAVILPKDAYLPGLDDSKRLTPEKREALFAQIEACAVAIGIGIVSAAEIDERNIYEATRQAMAKAVNALSPPPEHLLVDAMAVPCPLPQQRLIKGDANSASIAAASVIAKVTRDRWMKELDRRYPQYGFARHMGYGTPEHFEAIRRYGVTPEHRRSFAPVREVLKASEQL | soluble |
| MAALSDKLADAYQNARPRYPIDWFTKLAARTGQHKSAWDVGTGNGQAAIGLAEYFEKVTATDINEAQLKRAVKHERISYHHTPTTMSEDQMVALVGGDNSVDLIVAAQAVHYFDLAPFYNVAKRVLRKEGGLIAVFVYNDIIISPEVDSIMKRLVDSTFPFRTPVMNLAFDGYKTLPFPFESIGMGSEGKPIMLDIPHKLSLKGFIGFLRSWQPAMKAKERGVELVTEDLISKFEDAWGDDDDVKDIFYKAHMIVGKLSASDIERHRKRFDTNCVVTTLKDHNNSAVIASVTAAAFAGVAAYCAYSARKNS | soluble |
| MNPAPERTVMQHVRPLPYEADFTGFLSNTVAPRWMEALRIQRMRTCFPHFDSGAPQHLCIITETTVRYRKPVRYSDAIVGKAWLQSARYSRWIIAFSFAFEFSGLPAFEGRQAGTFIDPLEHHHHHH | not soluble |
| MKLNAIHHVAIIVSDYHLSKDFYVNKLGFEIIRENYRPDKHDYKLDLSCGRIELEIFGKVTSDPNYQAPPKRVSEPEFKSEACGLRHLAFRVTNIESYVDDLKSLGIPVEPIRHDDYTGEKMTFFFDPDGLPLELHE | not soluble |
